Biological target: T1, Mammaglobin polypeptide from breast cancer tissue extract (human, UniProt Q13296 19-93, glycoprotein (Asn 53 and/or Asn 68 may carry sugars))
T1 construct: native protein in tissue extract, 17-23 kD reduced
Assay: legend of FIG. 20A-D; MonoQ fractions, dot blots and Western blots
Description: C. Ion Exchange Chromatography The breast cancer tissue extract derived from the patient with invasive, poorly differentiated adenocarcinoma (breast) (FIG. 11, lanes. 4 and 10) was purified using anion exchange chromatography. Specifically, the 800 uL extract was applied to a Mono Q 5/5 column (Pharmacia) equilibrated with 20 mM piperazine, pH 6.0. The proteins were eluted using a linear gradient of sodium chloride. The flow rate was 1 mL/min; the gradient was 20 mM sodium chloride per milliliter of buffer; and the elution time was 50 minutes; creating an elution profile that went from 0 to 1000 mM sodium chloride. The sample loading time was 30 minutes prior to application of the elution gradient. Each 1 mL fraction was sampled. One hundred microliters of each fraction was boiled in the presence of 0.1% beta-mercaptoethanol and was then applied to a well of a dot blot apparatus and the volume was suctioned through a piece of nitrocellulose. The nitrocellulose filter was then developed with the same procedure to develop Western blots, as described hereinabove in Example 7B, using polyclonal antisera recognizing either BU101 or Mam. […]
Protein extracted from breast tissue was fractionated using a MonoQ column at pH6 and eluted using increasing salt gradient. […] The MamBu complex is detected using both antibodies under non-reducing conditions (FIGS. 20C & D). […]

T1 sequence (Q13296 19-93 limits assumed): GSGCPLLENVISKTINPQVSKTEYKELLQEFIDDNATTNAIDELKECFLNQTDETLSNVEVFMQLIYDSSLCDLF

- binding result: binds
B1: BU101 polypeptide from breast cancer tissue extract (other)
chain: EFCPALVSELLDFFFISEPLFKLSLAKFDAPPEAVAAKLGVKRCTDQMSLQKRSLIAEVLVKILKKCSV
notes: native protein in tissue extract, about 7 kD reduced
